Test results: US20060246470A1 (published 2006)
Values belong to the binder of their own block, whether it stands above or below them.

Assays:
[1] = target: T1, GST-ER, P03372
T1 chain: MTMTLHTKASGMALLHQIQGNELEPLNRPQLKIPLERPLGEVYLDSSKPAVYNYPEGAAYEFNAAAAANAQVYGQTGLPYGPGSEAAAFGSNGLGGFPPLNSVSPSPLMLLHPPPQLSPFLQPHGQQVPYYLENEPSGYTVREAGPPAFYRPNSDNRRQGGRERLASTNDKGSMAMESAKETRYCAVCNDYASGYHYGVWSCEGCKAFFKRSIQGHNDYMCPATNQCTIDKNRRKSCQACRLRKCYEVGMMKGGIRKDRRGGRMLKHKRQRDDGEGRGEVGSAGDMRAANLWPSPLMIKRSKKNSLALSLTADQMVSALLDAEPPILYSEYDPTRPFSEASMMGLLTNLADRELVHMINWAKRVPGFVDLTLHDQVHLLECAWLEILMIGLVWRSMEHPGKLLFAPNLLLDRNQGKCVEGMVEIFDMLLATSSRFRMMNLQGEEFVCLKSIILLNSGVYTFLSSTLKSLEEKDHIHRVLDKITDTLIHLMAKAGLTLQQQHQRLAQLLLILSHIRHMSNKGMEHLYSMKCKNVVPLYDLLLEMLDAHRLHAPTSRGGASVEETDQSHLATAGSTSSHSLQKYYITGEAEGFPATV

[2] = target: T2, GST-RhoGDI (aa:1-81), P52565
T2 chain: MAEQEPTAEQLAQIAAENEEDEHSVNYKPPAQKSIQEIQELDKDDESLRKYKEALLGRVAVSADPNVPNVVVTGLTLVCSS

[3] = target: T3, GST-RhoGDI, P52565
T3 chain: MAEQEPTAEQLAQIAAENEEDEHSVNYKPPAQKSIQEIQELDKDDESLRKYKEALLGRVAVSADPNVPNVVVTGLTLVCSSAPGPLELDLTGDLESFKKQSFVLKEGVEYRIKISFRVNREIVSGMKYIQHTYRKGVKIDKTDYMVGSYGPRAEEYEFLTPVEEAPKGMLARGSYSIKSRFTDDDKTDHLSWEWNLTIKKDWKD

[4] = target: T4, in vitro translated, 35S-incorporated ER (UniProt P03372 1-595, 35S-incorporated (in vitro translated)); test: GST pull-down with or without E2 or Tamoxifen (FIG. 29)
T4 construct: also called ERα
T4 sequence (looked up): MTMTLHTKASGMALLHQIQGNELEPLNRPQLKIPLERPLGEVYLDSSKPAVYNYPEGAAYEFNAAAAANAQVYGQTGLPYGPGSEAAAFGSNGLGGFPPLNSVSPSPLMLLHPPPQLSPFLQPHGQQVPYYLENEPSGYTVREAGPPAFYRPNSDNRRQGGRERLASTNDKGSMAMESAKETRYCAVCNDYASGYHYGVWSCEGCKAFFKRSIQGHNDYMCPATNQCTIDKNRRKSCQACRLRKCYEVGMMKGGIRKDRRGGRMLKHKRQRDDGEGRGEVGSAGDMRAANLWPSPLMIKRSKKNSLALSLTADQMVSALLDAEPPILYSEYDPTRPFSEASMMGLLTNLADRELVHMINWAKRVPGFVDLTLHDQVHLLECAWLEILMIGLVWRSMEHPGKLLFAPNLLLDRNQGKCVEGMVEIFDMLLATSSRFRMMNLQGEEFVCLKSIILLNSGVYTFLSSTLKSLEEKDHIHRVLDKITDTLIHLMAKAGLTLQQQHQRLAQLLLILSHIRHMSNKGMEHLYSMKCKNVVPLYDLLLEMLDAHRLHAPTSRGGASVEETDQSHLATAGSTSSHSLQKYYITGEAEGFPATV

[5] = target: T5, HER2, endogenous in MCF-7 cells (human, UniProt P04626 23-1255); test: immunoprecipitation and immunoblot, MCF-7 cells
T5 construct: also called HER-2/neu
Experimental: In Panel B, immunoprecipitation of E or T treated MCF-7 cells was performed followed by immunoblot analysis.

B1: GST-p300 HAT (protein)
chain: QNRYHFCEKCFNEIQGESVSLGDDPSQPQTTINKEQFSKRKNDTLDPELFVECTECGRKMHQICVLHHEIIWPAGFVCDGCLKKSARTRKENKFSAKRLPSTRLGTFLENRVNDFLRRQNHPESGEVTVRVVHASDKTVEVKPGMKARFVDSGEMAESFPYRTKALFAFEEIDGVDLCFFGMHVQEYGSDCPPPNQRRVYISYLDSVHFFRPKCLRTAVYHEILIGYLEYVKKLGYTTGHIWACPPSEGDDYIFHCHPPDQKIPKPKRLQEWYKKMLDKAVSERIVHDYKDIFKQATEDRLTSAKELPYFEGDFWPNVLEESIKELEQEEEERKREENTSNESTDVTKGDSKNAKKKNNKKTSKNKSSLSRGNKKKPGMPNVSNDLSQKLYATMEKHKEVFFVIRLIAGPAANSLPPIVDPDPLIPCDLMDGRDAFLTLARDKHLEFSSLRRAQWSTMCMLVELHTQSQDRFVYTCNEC
competitive in vitro acetylation assay [1]: Purified GST-ER was acetylated by GST-p300HAT in the presence of increasing amount of GST-RhoGDI. | in vitro acetylation assay (14C-acetyl-CoA, SDS-PAGE, autoradiography) [2]: The result indicates that N-terminal of RhoGDI contains acetylation site(s). | in vitro acetylation assay (14C-acetyl-CoA, SDS-PAGE, autoradiography) [3]: RhoGDI, like ERα, is acetylated by p300.

binding result [4]: no binding
B2: in vitro translated RhoGDI (other, UniProt P52565 1-204, looked up)
chain: MAEQEPTAEQLAQIAAENEEDEHSVNYKPPAQKSIQEIQELDKDDESLRKYKEALLGRVAVSADPNVPNVVVTGLTLVCSSAPGPLELDLTGDLESFKKQSFVLKEGVEYRIKISFRVNREIVSGMKYIQHTYRKGVKIDKTDYMVGSYGPRAEEYEFLTPVEEAPKGMLARGSYSIKSRFTDDDKTDHLSWEWNLTIKKDWKD

binding result [5]: binds
B3: EBP50 (ezrin binding protein 50), endogenous in MCF-7 cells (other, human, UniProt O14745 2-358, looked up)
chain: SADAAAGAPLPRLCCLEKGPNGYGFHLHGEKGKLGQYIRLVEPGSPAEKAGLLAGDRLVEVNGENVEKETHQQVVSRIRAALNAVRLLVVDPETDEQLQKLGVQVREELLRAQEAPGQAEPPAAAEVQGAGNENEPREADKSHPEQRELRPRLCTMKKGPSGYGFNLHSDKSKPGQFIRSVDPDSPAEASGLRAQDRIVEVNGVCMEGKQHGDVVSAIRAGGDETKLLVVDRETDEFFKKCRVIPSQEHLNGPLPVPFTNGEIQKENSREALAEAALESPRPALVRSASSDTSEELNSQDSPPKQDSTAPSSTSSSDPILDFNISLAMAKERAHQKRSSKRAPQMDWSKKNELFSNL
notes: also called NHE-RF; SLC9A3R1
